In patent US20170081383A1, “MELANOCORTIN ANALOGS HAVING ENHANCED ACTIVITY AND TRANSPORT” (Tensive Controls Inc., priority 2012, published 2017):
Positions of bridges follow the written chain, without caps; N, C: chain ends. Non-standard residues stand in square brackets, D forms with d. d2Nal = N[C@H](Cc1ccc2ccccc2c1)C(=O)O; Nle = CCCC[C@H](N)C(=O)O

Experiments:
[1] = Sutton et al., Peptides 2008; cited from earlier work
[2] = tested on: urethane-anesthetized rats; test: Cardiovascular activity of melanocortin peptides (MAP, heart rate, ECG); conditions: 200 nmol, n = 5
Protocol: These studies were performed in urethane-anesthetized rats, since anesthesia is required for six-lead ECG monitoring. […] Initial selection of doses was guided by FDA exploratory IND studies with a recommendation for at least a 100-fold excess of the human dose.

Ac-Nle-c[Asp-Pro-D-Nal(2′)-Arg-Trp-Lys]-Pro-Val-NH2 (Ac-[Nle]DP[d2Nal]RWKPV-NH2; lactam 2-7) [PG932]
peripheral activity [1]: active peripherally
Duration [2]: 4 ± 3 min
Peak Heart Rate Response (BPM) [2]: 13 ± 9 BPM
Peak MAP Response (Δ mm Hg) [2]: 5 ± 3 mm Hg
